B1: ADI-41816 (antibody, V domains shown)
VH: QVQLVQSGAEVKKPGASVKVSCEASGYTFTDSYIHWVRQAPGQGLEWMGWINPNSGGTNYAQKFQGRVTMTRDTSTSTAFIELSRLRSDDTAVYYSARGVRQQWLVNTGDPDYYFDFWGQGTLVTVSS
VL: SYVLTQPPSVSVSPGQTASITCSGDKLGDKYSCWYQQKPGQSPVLVIYQDYKRPSGIPERFSGSNSGNTATLTISGTQAMDEADYYCQAWDRNAGVFGTGTKLTVL
B2: ADI-41829 (antibody, V domains shown)
VH: EVQLVESGGGLVKPGGSLRLSCAASGFTSSGYNMNWVRQAPGKGLEWVSSISGSSSYIHYADSVKGRFTISRDNAKNSLYLQMNSLRAEDTAVYYCATVGALPGHFDNWGQGTLVTVSS
VL: QAVVTQEPSVSGAPGQRVTISCTGSSSNIGAGYDVHWYQQLPGTAPKLLIYDNTNRPSGVPDRFSGSKSGTSASLAITGLQAEDEADYYCQSYDSRLTYVFGTGTKVTVL
B3: ADI-41830 (antibody, V domains shown)
VH: QVQLVQSGPAVKKPGASVKVSCKASGYIFTSYGVSWVRQAPGQGLEWMGWISGYNGNTDYAQKFQGRVTLTVDSSTGTVYMDLRSLRSDDTAIYYCARAPPLPGQVYDGAGSYLLHGYWGQGTLVTVSS
VL: not shown
B4: ADI-41831 (antibody, V domains shown)
VH: EVQLLESGGGLVKPGGSLRLSCAASGFTFSSYAMHWVRQPPGKGLEWVSSISASSSFINYADSVKGRFTISRDGARNSLYLQMNSLRAEDTAVYYCVREDYDSSGYGLHWFDPWGQGTTVTVSS
VL: SYVLTQPPSVSGAPGQRVTISCTGSSSNIGAGYDVHWYQQFPGTAPKLLMYGNTNRPSGVPDRFSGSKSGTSASLAITGLQAEDEADYYCQSYDRSLSGWVFGGGTKLTVL
B5: ADI-41832 (antibody, V domains shown)
VH: EVQLVESGGGLVQPGGSLRLSCAASGFTFSKYAMNWVRQAPGKGLEWVSSISDSGDSRYYADSVKGRFTISRDSSKNTLNLQMNSLRAEDTAVYYCAKAGWELFSPQGAFDLWGQGTMVTVSS
VL: EIVMTQSPGTLSLSPGERATLSCRASQSVSSSHLAWYQQKPGQAPRLLIYGASSRDSGIPDRFSGSGSGTDFTLSISRLEPEDFAVYYCQHYGNSPYTFGQGTKVDIK
B6: ADI-41834 (antibody, V domains shown)
VH: EVQLLESGGRLVQPGRSLRLSCAASGFTVSGSYMSWVRQAPGKGLEWVSVIYIDGGTKYADSVKGRFTISRDNSKNTVYLQMNSLRAEDTAVYYCARDSSLWYRGGDYWGQGTLVTVSS
VL: DIQMTQSPSSLSASVGDRVTITCQANHDISNYLNWYQQKPGKAPKLLIYDASILEAGVPSRFSGSGSGTHFTFTISSLQPEDIATYYCQQFDFRALTFGGGTKVEIK
B7: ADI-41451 (antibody, V domains shown)
VH: EVQLVESGGGLVQPGGSLRLSCAAAGFTFNNYEMHWVRQAPGKGLEWVSCVTSSGTATYYADSVKGRFTVSRDNAKKSLQLQMNSLRAEDTAVYYCARELYLGEDYYYGLDVWGQGTTVTVSS
VL: SYELTQPPSVSVSPGQTASISCSGDKLRNKHTCWYQHKSGQSPVLLIYQDNRRPSGIPDRLSGSKSGTTATLTISWTQAMDEAEYYCQAWDSNSAVIFGGGTKLTVL
notes: IgG1; also called Ab 735
B8: ADI-41453 (antibody, V domains shown)
VH: QVQLVQSGAEVRKPGASVKVSCKASGYTFSIYDMNWVRQAPGQGLEWMGWMNPNSGNTGYAQKFQGRVTMTGDTSISTAYMELSSLTSEDTAVYYCAVMYGDYPGYWGQGSLVTVSS
VL: SYELTQPLSVSVALGQTARITCGGNNIGSKSVHWYQQKPGQAPVLVIYRDAKRPSGIPERFSGSNSGNTATLTISGAQAGDEADYYCQVWDSNAWIFGGRTKLTVL
notes: IgG1; also called Ab 737

molecular target: RSV F on RSV subtype A virus (RSV-A2) (Respiratory Syncytial Virus, subtype A, …, UniProt P03420 26-574); experiment: cell-based or functional assay

In order of falling “Neutralization IC50 (RSV subtype A)” value:
1. B4  5.21 µg/mL
2. B1  0.91 µg/mL
3. B5  0.19 µg/mL
4. B2  0.12 µg/mL
5. B3  0.12 µg/mL
6. B6  0.07 µg/mL

molecular target: RSV prefusion F (preF), DS-Cav1 (respiratory syncytial virus, UniProt P03420 26-513); experiment: BLI, IgG on sensor, 100 nM antigen

In order of falling Kd:
1. B8  2.17 nM
2. B7  1.82 nM

molecular target: RSV postfusion F (postF), F deltaFP (respiratory syncytial virus, UniProt P03420 26-513); experiment: BLI, IgG on sensor, 100 nM antigen

In order of rising Kd:
1. B8  0.403 nM
2. B7  1.67 nM

molecular target: RSV fusion glycoprotein (RSV F) on RSV-A2 virus (respiratory syncytial virus, UniProt P03420 26-574); experiment: cell-based or functional assay

Compared with B7, B8 is higher in “Neutralization IC50 (RSV subtype A)” value: 0.84 µg/mL for the first, over 25 µg/mL for the second.

Reference: patent publication US20260258115A1 (MAPP BIOPHARMACEUTICAL, published 2026)
